Laboratory results: patent US20230304047A1

Molecular target: wildtype S. pyogenes Cas9 (S. pyogenes) (UniProt Q99ZW2)
Assay: cell-based or functional assay

UniProt Q99ZW2, sequence (Q99ZW2 whole entry): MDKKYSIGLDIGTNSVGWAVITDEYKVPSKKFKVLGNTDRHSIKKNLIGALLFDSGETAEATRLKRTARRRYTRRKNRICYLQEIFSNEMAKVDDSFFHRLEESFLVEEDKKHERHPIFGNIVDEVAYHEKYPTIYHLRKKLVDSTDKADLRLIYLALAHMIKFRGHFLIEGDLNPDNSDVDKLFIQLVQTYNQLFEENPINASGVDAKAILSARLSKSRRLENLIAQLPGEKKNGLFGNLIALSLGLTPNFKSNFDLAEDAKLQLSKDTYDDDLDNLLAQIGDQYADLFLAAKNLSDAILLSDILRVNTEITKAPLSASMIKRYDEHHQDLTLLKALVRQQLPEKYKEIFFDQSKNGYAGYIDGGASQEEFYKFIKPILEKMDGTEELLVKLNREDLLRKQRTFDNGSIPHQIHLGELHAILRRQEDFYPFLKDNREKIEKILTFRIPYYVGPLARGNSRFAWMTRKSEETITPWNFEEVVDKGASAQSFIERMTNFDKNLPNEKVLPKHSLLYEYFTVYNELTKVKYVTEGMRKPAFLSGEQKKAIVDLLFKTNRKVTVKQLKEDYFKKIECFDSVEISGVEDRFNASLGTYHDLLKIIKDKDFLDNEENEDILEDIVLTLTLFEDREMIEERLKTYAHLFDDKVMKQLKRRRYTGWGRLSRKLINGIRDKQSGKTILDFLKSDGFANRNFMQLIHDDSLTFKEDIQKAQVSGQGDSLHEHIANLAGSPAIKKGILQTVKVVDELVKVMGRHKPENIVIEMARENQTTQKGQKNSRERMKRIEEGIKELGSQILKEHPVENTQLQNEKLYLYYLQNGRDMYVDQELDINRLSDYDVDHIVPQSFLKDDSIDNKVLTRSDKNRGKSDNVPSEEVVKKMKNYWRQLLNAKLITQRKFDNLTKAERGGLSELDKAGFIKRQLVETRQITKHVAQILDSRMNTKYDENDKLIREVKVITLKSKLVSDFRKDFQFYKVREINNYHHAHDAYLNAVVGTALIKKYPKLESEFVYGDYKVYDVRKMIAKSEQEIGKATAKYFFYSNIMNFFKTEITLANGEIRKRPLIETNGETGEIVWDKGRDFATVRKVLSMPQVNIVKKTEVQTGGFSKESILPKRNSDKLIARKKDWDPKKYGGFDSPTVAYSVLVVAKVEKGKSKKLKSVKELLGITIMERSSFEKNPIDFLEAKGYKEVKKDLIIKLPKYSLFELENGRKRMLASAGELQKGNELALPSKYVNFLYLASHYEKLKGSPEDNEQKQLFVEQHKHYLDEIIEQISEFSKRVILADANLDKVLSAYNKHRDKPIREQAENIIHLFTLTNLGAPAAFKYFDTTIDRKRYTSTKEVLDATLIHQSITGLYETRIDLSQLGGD

AcrIIA2-Cdt1 fusion protein
HDR (GFP correction) in RPE1 reporter cells deficient of p53, AcrIIA2-Cdt1 protein co-transfected with WT CRISPR-Cas9 RNP: 2 fold
HDR (GFP correction) in RPE1 reporter cells, AcrIIA2-Cdt1 protein co-transfected with WT CRISPR-Cas9 RNP: 3 fold
